Laboratory results taken from publication PMC7083937, “The ribosome-associated complex RAC serves in a relay that directs nascent chains to Ssb” (Nature Communications, 2020).
No end group written: not given here. fluorescein = fluorescein (N-terminal label)

Tests used:
[1] = target: T1, ScSsz1-Zuo1NΔLP complex (ScSsz1 with ScZuo1NΔLP residues 10-50) (S. cerevisiae, UniProt P38788 1-538; P32527 10-50); assay: nanoDSF; melting temperature of the complex with or without LP-peptide; 20 mM Hepes/KOH pH 7.5, 200 mM KCl, 5 mM MgCl2, 1 mM DTT; 20 to 90 °C at 1.5 °C/min; settings: both partners purified
T1 construct: Ssz1, S. cerevisiae; Zuo1, S. cerevisiae, residues 10-50, lacking the LP-motif (ScZuo1NΔLP); residues of the 3C site may be left on Zuo1NΔLP; not shown: His6-MBP, N-terminal, cleaved
T1 sequence (looked up) 1: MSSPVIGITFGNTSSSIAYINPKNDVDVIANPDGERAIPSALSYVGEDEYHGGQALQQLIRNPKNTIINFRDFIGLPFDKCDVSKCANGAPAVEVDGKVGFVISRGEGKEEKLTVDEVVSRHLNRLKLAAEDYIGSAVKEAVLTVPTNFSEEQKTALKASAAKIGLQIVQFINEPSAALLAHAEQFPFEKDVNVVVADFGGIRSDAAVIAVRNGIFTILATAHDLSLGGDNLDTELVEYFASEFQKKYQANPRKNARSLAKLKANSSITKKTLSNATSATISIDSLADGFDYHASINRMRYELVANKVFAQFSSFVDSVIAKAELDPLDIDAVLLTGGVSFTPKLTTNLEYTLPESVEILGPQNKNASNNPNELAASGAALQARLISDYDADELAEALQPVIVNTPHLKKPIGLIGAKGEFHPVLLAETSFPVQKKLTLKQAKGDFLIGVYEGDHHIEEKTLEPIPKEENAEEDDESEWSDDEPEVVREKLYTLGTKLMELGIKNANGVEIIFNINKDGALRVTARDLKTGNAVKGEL
T1 sequence (looked up) 2: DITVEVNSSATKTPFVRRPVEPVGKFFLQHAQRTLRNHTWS

[2] = nanoDSF thermal stability of RAC core complexes; assay type: physicochemical, Saccharomyces cerevisiae; settings: 20 mM Hepes/KOH pH 7.5, 200 mM KCl, 5 mM MgCl2, 1 mM DTT, 20 to 90 °C at 1.5 °C/min, 330/350 nm, no peptide, three measurements shown
Description: (§1) The melting temperature of ScSsz1-Zuo1N, ScSsz1-Zuo1NΔLP or ScSsz1mut-Zuo1NΔLP with or without the LP-peptide (Peptide Specialty Laboratories GmbH, Heidelberg) were determined using the Prometheus NT.48 nanoDSF system using nano-DSF grade capillaries (NanoTemper Technologies GmbH). The measurements were performed in 20 mM Hepes/KOH pH 7.5, 200 mM KCl, 5 mM MgCl2, 1 mM DTT. The LP-peptide, which was dissolved in DMSO, was pre-diluted in the above buffer such that the final DMSO concentration in the experiment was below 0.5%. DMSO diluted in the same way was added to the negative control. Intrinsic protein fluorescence was measured continuously at 330 nm and 350 nm with a temperature gradient ranging from 20 to 90 °C at a rate of 1.5 °C/min. […]
(§2) (a-b) NanoDSF analysis of Ssz1-Zuo1N (blue) and Ssz1-Zuo1NDLP (orange) in a and Ssz1-Zuo1NDLP wit hout t he LP-pept ide (orange) or wit h t he LP-pept ide (blue) in b. Three measurements are shown.
(§3) Source data are provided as a Source Dat a f ile.
(§4) (c) Residues (L439S/K440P/I448F/G495K) mutated in Ssz1mut to block substrate binding to Ssz1-SBDb (cyan) are in stick representation (upper panel). Zuo1N is shown in orange a nd the LP-motif in yellow. Multiple sequence alignment of Hsp70 homologs (lower panel) wit h the mutations highlighted in yellow. The alignment is colored as in Fig. 2a. […]

ScSsz1-Zuo1NΔLP = assay: nanoDSF melting temperature with/without LP-peptide; assay type: binding, Saccharomyces cerevisiae; settings: DMSO negative control (<0.5%), pH 7.5, 200 mM KCl, 20 to 90 °C at 1.5 °C/min, three measurements shown
Description: as §1, §2, §3, §4

[3] = target: T1, ScSsz1-Zuo1NΔLP complex (ScSsz1 with …); assay: fluorescence polarisation; fluorescence anisotropy; two-fold serial dilutions of the protein complex mixed 1:1 with 40 nM fluorescein peptide; 20 mM Hepes/KOH pH 7.5, 200 mM KCl, 5 mM MgCl2, 1 mM DTT, 1 µM BSA; room temperature, 30 min; one-site binding fit; affinity called estimated; settings: both partners purified

B1: LP-peptide (MFSLPTL, ScZuo1 residues 1-7), free peptide (peptide)
peptide: MFSLPTL
notes: LP-motif of Zuo1, S. cerevisiae, residues 1-7; source: synthetic peptide (Peptide Specialty Laboratories GmbH, Heidelberg)
[1]
  binding result: binds

B2: RAC core complex: ScSsz1 with ScZuo1N (residues 1-50) (protein)
chain 1: T1 sequence (looked up) 1
chain 2: MFSLPTLTSDITVEVNSSATKTPFVRRPVEPVGKFFLQHAQRTLRNHTWS
modifications: left off: His6-SUMO, N-terminal, state not stated | His6-MBP, N-terminal, cleaved
[2]
  melting temperature (thermal stability of RAC core complex): 52.9 °C

B3: Ssz1-Zuo1NΔLP: ScSsz1 with ScZuo1NΔLP (residues 10-50) lacking the LP-motif (protein)
chain 1: T1 sequence (looked up) 1
chain 2: T1 sequence (looked up) 2
modifications: left off: His6-SUMO, N-terminal, state not stated | His6-MBP, N-terminal, cleaved
notes: ScSsz1 with ScZuo1NΔLP (residues 10-50) lacking the LP-motif
[2]
  melting temperature (thermal stability of RAC core complex): 39.7 °C
ScSsz1-Zuo1NΔLP
  melting temperature of Ssz1-Zuo1NΔLP without LP-peptide: 40.3 °C

B4: LP-peptide (MFSLPTL) labelled at the N terminus with fluorescein (peptide)
peptide: fluorescein-MFSLPTL
notes: as for B1
[3]
  Kd: 11.9 ± 4 µM
